B1: SMA014 (designed binder)
chain: MRGSHHHHHHGSDLGEKLLVAALYGQDDEVRELLKAGADVNAKDQWGLTPLHKAALQGHLEIVEVLLKAGADVNAKDERGHTPLHWAARFGHLEIVEVLLKAGADVNAQDQKGYTPADLAALWGHEDIAEVLQKAAGSPTPTPTTPTPTPTTPTPTPTGSDLGKKLLQAARAGQLDEVRELLKAGADVNAKDTWGFTPLHIAAESGHLEIVEVLLKAGADVNAKDVQGRTPLHIAAHSGHLEIVEVLLKAGADVNAKDFRGWTPLHLAAWSGHLEIVEILLKAGADVNAQDKSGKTPADLAARAGHQDIAEVLQKAA
B2: SMA091 (designed binder)
chain: MRGSHHHHHHGSDLGKKLLEAARAGQDDEVRELLKAGADVNAKDYFSHTPLHLAARNGHLKIVEVLLKAGADVNAKDFAGKTPLHLAAADGHLEIVEVLLKAGADVNAQDIFGKTPADIAADAGHEDIAEVLQKAAGSPTPTPTTPTPTPTTPTPTPTGSDLGEKLLVAALYGQDDEVRELLKAGADVNAKDQWGLTPLHKAALQGHLEIVEVLLKAGADVNAKDERGHTPLHWAARFGHLEIVEVLLKAGADVNAQDQKGYTPADLAALWGHEDIAEVLQKAAGSPTPTPTTPTPTPTTPTPTPTGSDLGKKLLQAARAGQLDEVRELLKAGADVNAKDTWGFTPLHIAAESGHLEIVEVLLKAGADVNAKDVQGRTPLHIAAHSGHLEIVEVLLKAGADVNAKDFRGWTPLHLAAWSGHLEIVEILLKAGADVNAQDKSGKTPADLAARAGHQDIAEVLQKAAGSPTPTPTTPTPTPTTPTPTPTGSDLGKKLLQAARAGQLDEVRELLKAGADVNAKDTWGFTPLHIAAESGHLEIVEVLLKAGADVNAKDVQGRTPLHIAAHSGHLEIVEVLLKAGADVNAKDFRGWTPLHLAAWSGHLEIVEILLKAGADVNAQDKSGKTPADLAARAGHQDIAEVLQKAA
B3: SMA095 (designed binder)
chain: MRGSHHHHHHGSDLGKKLLEAARAGQDDEVRELLKAGADVNAKDYFSHTPLHLAARNGHLKIVEVLLKAGADVNAKDFAGKTPLHLAAADGHLEIVEVLLKAGADVNAQDIFGKTPADIAADAGHEDIAEVLQKAAGSPTPTPTTPTPTPTTPTPTPTGSDLGEKLLVAALYGQDDEVRELLKAGADVNAKDQWGLTPLHKAALQGHLEIVEVLLKAGADVNAKDERGHTPLHWAARFGHLEIVEVLLKAGADVNAQDQKGYTPADLAALWGHEDIAEVLQKAAGSPTPTPTTPTPTPTTPTPTPTGSDLGKKLLQAARAGQLDEVRELLKAGADVNAKDTWGFTPLHIAAESGHLEIVEVLLKAGADVNAKDVQGRTPLHIAAHSGHLEIVEVLLKAGADVNAKDFRGWTPLHLAAWSGHLEIVEILLKAGADVNAQDKSGKTPADLAARAGHQDIAEVLQKAAGSPTPTPTTPTPTPTTPTPTPTGSDLGKKLLEAARAGQDDEVRELLKAGADVNAKDYFSHTPLHLAARNGHLKIVEVLLKAGADVNAKDFAGKTPLHLAAADGHLEIVEVLLKAGADVNAQDIFGKTPADIAADAGHEDIAEVLQKAA
B4: SMA099 (designed binder)
chain: MRGSHHHHHHGSDLGKKLLEAARAGQDDEVRELLKAGADVNAKDYFSHTPLHLAARNGHLKIVEVLLKAGADVNAKDFAGKTPLHLAAADGHLEIVEVLLKAGADVNAQDIFGKTPADIAADAGHEDIAEVLQKAAGSPTPTPTTPTPTPTTPTPTPTGSDLGEKLLVAALYGQDDEVRELLKAGADVNAKDQWGLTPLHKAALQGHLEIVEVLLKAGADVNAKDERGHTPLHWAARFGHLEIVEVLLKAGADVNAQDQKGYTPADLAALWGHEDIAEVLQKAAGSPTPTPTTPTPTPTTPTPTPTGSDLGKKLLQAARAGQLDEVRELLKAGADVNAKDTWGFTPLHIAAESGHLEIVEVLLKAGADVNAKDVQGRTPLHIAAHSGHLEIVEVLLKAGADVNAKDFRGWTPLHLAAWSGHLEIVEILLKAGADVNAQDKSGKTPADLAARAGHQDIAEVLQKAAGSPTPTPTTPTPTPTTPTPTPTGSDLGKKLLQAARAGQLDEVRELLKAGADVNAKDTWGFTPLHIAAESGHLEIVEVLLKAGADVNAKDVQGRTPLHIAAHSGHLEIVEVLLKAGADVNAKDFRGWTPLHLAAWSGHLEIVEILLKAGADVNAQDKSGKTPADLAARAGHQDIAEVLQKAAGSPTPTPTTPTPTPTTPTPTPTGSDLGKKLLEAARAGQDDEVRELLKAGADVNAKDYFSHTPLHLAARNGHLKIVEVLLKAGADVNAKDFAGKTPLHLAAADGHLEIVEVLLKAGADVNAQDIFGKTPADIAADAGHEDIAEVLQKAA
B5: AS579 (designed binder)
chain: MRGSHHHHHHGSDLGKKLLEAARAGQDDEVRELLKAGADVNAKDYFSHTPLHLAARNGHLKIVEVLLKAGADVNAKDFAGKTPLHLAAADGHLEIVEVLLKAGADVNAQDIFGKTPADIAADAGHEDIAEVLQKAAGSPTPTPTTPTPTPTTPTPTPTGSDLGKKLLEAARAGQDDEVRELLKAGADVNAKDYFSHTPLHLAARNGHLKIVEVLLKAGADVNAKDFAGKTPLHLAAADGHLEIVEVLLKAGADVNAQDIFGKTPADIAADAGHEDIAEVLQKAAGSPTPTPTTPTPTPTTPTPTPTGSDLGEKLLVAALYGQDDEVRELLKAGADVNAKDQWGLTPLHKAALQGHLEIVEVLLKAGADVNAKDERGHTPLHWAARFGHLEIVEVLLKAGADVNAQDQKGYTPADLAALWGHEDIAEVLQKAAGSPTPTPTTPTPTPTTPTPTPTGSDLGKKLLQAARAGQLDEVRELLKAGADVNAKDTWGFTPLHIAAESGHLEIVEVLLKAGADVNAKDVQGRTPLHIAAHSGHLEIVEVLLKAGADVNAKDFRGWTPLHLAAWSGHLEIVEILLKAGADVNAQDKSGKTPADLAARAGHQDIAEVLQKAAGSPTPTPTTPTPTPTTPTPTPTGSDLGKKLLQAARAGQLDEVRELLKAGADVNAKDTWGFTPLHIAAESGHLEIVEVLLKAGADVNAKDVQGRTPLHIAAHSGHLEIVEVLLKAGADVNAKDFRGWTPLHLAAWSGHLEIVEILLKAGADVNAQDKSGKTPADLAARAGHQDIAEVLQKAA

Data on five molecules can be found in US20210395318A1 (Molecular Partners, published 2021).

The first assay deals with T1, human CD40 on primary human B cells or human monocyte-derived dendritic cells (human, UniProt P25942 21-277). In words: cell-based or functional assay.
T1 sequence (P25942 21-277 H80K/K81H limits assumed): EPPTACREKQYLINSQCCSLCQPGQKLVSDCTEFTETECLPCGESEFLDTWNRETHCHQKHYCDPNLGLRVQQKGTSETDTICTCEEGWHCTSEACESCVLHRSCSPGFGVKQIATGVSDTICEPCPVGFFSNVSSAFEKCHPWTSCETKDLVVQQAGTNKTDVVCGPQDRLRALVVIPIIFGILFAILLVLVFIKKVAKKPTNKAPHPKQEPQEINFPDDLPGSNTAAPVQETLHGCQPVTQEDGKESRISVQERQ
For B1, the “Efficacy [MFI at highest dose], MFI CD86, human B cells with WT-CHO cells (no FAP), w HSA” value (“Efficacy [MFI at highest dose] … (no FAP), w HSA” below) worked out at 310 MFI; the “Efficacy [MFI at highest dose], MFI CD86, human B cells with WT-CHO cells (no FAP), w/o HSA” value was found to be 294 MFI; the “Efficacy at highest dose, % CD86, human B cells with WT-CHO cells (no FAP), w HSA” value is 13.3%; the “Efficacy at highest dose, % CD86, human B cells with WT-CHO cells (no FAP), w/o HSA” value worked out at 13.2%.

Regarding B2, the “Efficacy [MFI at highest dose] … (no FAP), w HSA” value was found to be 296 MFI; the “Efficacy [MFI at highest dose], MFI CD86, human B cells with WT-CHO cells (no FAP), w/o HSA” value was 290 MFI; the “Efficacy at highest dose, % CD86, human B cells with WT-CHO cells (no FAP), w HSA” value came out at 43.1%; the “Efficacy at highest dose, % CD86, human B cells with WT-CHO cells (no FAP), w/o HSA” value came to 47.8%.

B3: the “Efficacy [MFI at highest dose] … (no FAP), w HSA” value is 306 MFI; the “Efficacy [MFI at highest dose], MFI CD86, human B cells with WT-CHO cells (no FAP), w/o HSA” value stood at 299 MFI; the “Efficacy at highest dose, % CD86, human B cells with WT-CHO cells (no FAP), w HSA” value came to 13.7%; the “Efficacy at highest dose, % CD86, human B cells with WT-CHO cells (no FAP), w/o HSA” value amounted to 12.5%.

B4: the “Efficacy [MFI at highest dose] … (no FAP), w HSA” value was 274 MFI; the “Efficacy [MFI at highest dose], MFI CD86, human B cells with WT-CHO cells (no FAP), w/o HSA” value is 289 MFI; the “Efficacy at highest dose, % CD86, human B cells with WT-CHO cells (no FAP), w HSA” value was determined as 42.5%; the “Efficacy at highest dose, % CD86, human B cells with WT-CHO cells (no FAP), w/o HSA” value was determined as 47.4%.

Consider B5, for which the “Efficacy [MFI at highest dose] … (no FAP), w HSA” value is 242 MFI; the “Efficacy [MFI at highest dose], MFI CD86, human B cells with WT-CHO cells (no FAP), w/o HSA” value was found to be 252 MFI; the “Efficacy at highest dose, % CD86, human B cells with WT-CHO cells (no FAP), w HSA” value amounted to 40.1%; the “Efficacy at highest dose, % CD86, human B cells with WT-CHO cells (no FAP), w/o HSA” value is 42%.

In a further assay the target is T1, human CD40 on primary human B cells or …. In words: cell-based or functional assay. The source holds these as a separate data set.
In the case of B1, the “Efficacy [MFI at highest dose], MFI CD86, human B cells with FAP-CHO cells, w HSA” value was 2190 MFI; the “Efficacy [MFI at highest dose], MFI CD86, human B cells with FAP-CHO cells, w/o HSA” value was found to be 2440 MFI; the “Efficacy at highest dose, % CD86, human B cells with FAP-CHO cells, w HSA” value was found to be 47%; the “Efficacy at highest dose, % CD86, human B cells with FAP-CHO cells, w/o HSA” value is 48.4%.

Consider B2, for which the “Efficacy [MFI at highest dose], MFI CD86, human B cells with FAP-CHO cells, w HSA” value amounted to 2980 MFI; the “Efficacy [MFI at highest dose], MFI CD86, human B cells with FAP-CHO cells, w/o HSA” value came out at 6230 MFI; the “Efficacy at highest dose, % CD86, human B cells with FAP-CHO cells, w HSA” value came out at 75.6%; the “Efficacy at highest dose, % CD86, human B cells with FAP-CHO cells, w/o HSA” value was found to be 78.2%.

In the case of B3, the “Efficacy [MFI at highest dose], MFI CD86, human B cells with FAP-CHO cells, w HSA” value came out at 232 MFI; the “Efficacy [MFI at highest dose], MFI CD86, human B cells with FAP-CHO cells, w/o HSA” value came out at 773 MFI; the “Efficacy at highest dose, % CD86, human B cells with FAP-CHO cells, w/o HSA” value was 28.7%.

In the case of B4, the “Efficacy [MFI at highest dose], MFI CD86, human B cells with FAP-CHO cells, w HSA” value came out at 1720 MFI; the “Efficacy [MFI at highest dose], MFI CD86, human B cells with FAP-CHO cells, w/o HSA” value was 4950 MFI; the “Efficacy at highest dose, % CD86, human B cells with FAP-CHO cells, w HSA” value worked out at 71.7%; the “Efficacy at highest dose, % CD86, human B cells with FAP-CHO cells, w/o HSA” value turned out to be 84.4%.

As for B5, the “Efficacy [MFI at highest dose], MFI CD86, human B cells with FAP-CHO cells, w HSA” value came to 1780 MFI; the “Efficacy [MFI at highest dose], MFI CD86, human B cells with FAP-CHO cells, w/o HSA” value was found to be 4860 MFI; the “Efficacy at highest dose, % CD86, human B cells with FAP-CHO cells, w HSA” value was determined as 71.9%; the “Efficacy at highest dose, % CD86, human B cells with FAP-CHO cells, w/o HSA” value was determined as 83%.

The next assay shares this target. In words: cell-based or functional assay. This is another data set of the same source.
For B1, the “EC50, % CD86, human B cells with FAP-CHO cells, w HSA” value (from here on “EC50, % CD86, human B cells … w HSA”) came to 6.15 nM; the “EC50, % CD86, human B cells with FAP-CHO cells, w/o HSA” value (“EC50, % CD86, human B cells … w/o HSA” for short) came to 4.21 nM; the “EC50, MFI CD86, human B cells with FAP-CHO cells, w HSA” value (“EC50, MFI CD86, human B cells … w HSA” below) worked out at 7.7 nM; the “EC50, MFI CD86, human B cells with FAP-CHO cells, w/o HSA” value (from here on “EC50, MFI CD86, human B cells … w/o HSA”) is 8.46 nM.

Turning to B2, the “EC50, % CD86, human B cells … w HSA” value turned out to be 2.98 nM; the “EC50, % CD86, human B cells … w/o HSA” value turned out to be 0.76 nM; the “EC50, MFI CD86, human B cells … w HSA” value came to 8.05 nM; the “EC50, MFI CD86, human B cells … w/o HSA” value was 3.93 nM.

Regarding B3, the “EC50, % CD86, human B cells … w/o HSA” value amounted to 89.8 nM and the “EC50, MFI CD86, human B cells … w/o HSA” value was determined as 288 nM.

As to B4, the “EC50, % CD86, human B cells … w HSA” value turned out to be 7.5 nM; the “EC50, % CD86, human B cells … w/o HSA” value came to 4.68 nM; the “EC50, MFI CD86, human B cells … w HSA” value worked out at 19.4 nM; the “EC50, MFI CD86, human B cells … w/o HSA” value was found to be 18.2 nM.

With B5, the “EC50, % CD86, human B cells … w HSA” value came to 10.2 nM; the “EC50, % CD86, human B cells … w/o HSA” value turned out to be 2.27 nM; the “EC50, MFI CD86, human B cells … w HSA” value turned out to be 23.1 nM; the “EC50, MFI CD86, human B cells … w/o HSA” value was 10 nM.
